This note sets out measurements from the Immune Epitope Database (IEDB).

Test [1] has as its target HLA-B*07:02. In words: IEDB peptide-MHC binding, purified MHC/competitive/radioactivity; filed as Kd, often an IC50 or EC50 that approximates it; ≥ and ≤ were set here for values at or beyond the usual limits of such assays.
A further test addresses HLA-B*35:01. The test is described as above.
In a further test the target is HLA-B*51:01. The test is described as above.
Another test deals with HLA-B*53:01. The test is described as above.
A further test deals with HLA-B*54:01. The test is described as above.
For test [2], the target named is HLA-B*15:01. In words: IEDB peptide-MHC binding, purified MHC/direct/fluorescence; filed as Kd, often an IC50 or EC50 that approximates it; ≥ and ≤ were set here for values at or beyond the usual limits of such assays.
For another test, the target named is HLA-B*46:01. Described as above.
A further test concerns the target HLA-A*01:01. The test is described as above.
The target of another test is HLA-A*02:01. The description is as above.
Another test has as its target HLA-A*03:01. The test is described as above.
In a further test the target is HLA-A*11:01. The test is described as above.
The target of the next test is HLA-A*26:01. The description is as above.
Another test concerns the target HLA-A*69:01. Described as above.
The target in test [3] is HLA-B*07:02. The description is as above.
In the next test the target is HLA-B*08:01. Described as above.
A further test deals with HLA-B*27:05. The test is described as above.
For a further test, the target named is HLA-B*40:01. The description is as above. As to conditions: source organism: Giardia lamblia ATCC 50803.
In another test the target is HLA-B*58:01. Described as above.
Test [4] has as its target HLA-B*15:01. The experiment in a line: IEDB peptide-MHC binding, purified MHC/competitive/radioactivity; filed as Kd, often an IC50 or EC50 that approximates it; ≥ and ≤ were set here for values at or beyond the usual limits of such assays.
For a further test, the target named is HLA-A*31:01. The experiment in a line: IEDB peptide-MHC binding, purified MHC/direct/fluorescence; filed as Kd, often an IC50 or EC50 that approximates it; ≥ and ≤ were set here for values at or beyond the usual limits of such assays. The conditions noted are these: source organism: Pseudomonas aeruginosa UCBPP-PA14.
[5] abbreviates: source organism: Vaccinia virus WR.
Where [6] appears, read: source organism: Mammarenavirus lassaense.
Where [7] appears, read: source organism: SARS coronavirus Tor2.
The mark [8] stands for this setting: source organism: Giardia lamblia ATCC 50803.
[9] abbreviates: source organism: Mammarenavirus guanaritoense.
Where [10] appears, read: source organism: Triticum aestivum.
Setting [11] is: source organism: Pseudomonas aeruginosa UCBPP-PA14.

For orientation: Kd means the equilibrium constant for the complex coming apart. Regarding NPSILPSLI, the Kd in the test with HLA-B*07:02 [1] (setting [5]) is 0.287 µM; with HLA-B*35:01 (setting [5]) it was 1120 nM; in the test with HLA-B*51:01 (setting [5]) it was 0.304 µM; with HLA-B*53:01 (setting [5]), 5.55 nM; with HLA-B*54:01 (setting [5]), no less than 73.4 µM.

As to LYQPSSGCY, the Kd with HLA-B*15:01 [2] (setting [6]) was 1.07 µM; with HLA-B*46:01 (setting [6]), no less than 20 µM.

With AMFEEQNQW, in the test with HLA-B*46:01 (source organism: West Nile virus), the Kd was no less than 20 µM.

Take RPKQRRPQGL: the Kd in the test with HLA-B*07:02 [1] (setting [7]) was 0.308 µM; with HLA-B*35:01 (setting [7]) it was no less than 69900 nM; with HLA-B*51:01 (setting [7]), no less than 69.6 µM; with HLA-B*53:01 (setting [7]), no less than 69900 nM; in the test with HLA-B*54:01 (setting [7]), no less than 69.9 µM.

YTDDYPMYK: the Kd is 18.9 nM with HLA-A*01:01 (setting [8]); no less than 20 µM with HLA-A*02:01 (setting [8]); 359 nM in the test with HLA-A*03:01 (setting [8]); 40 nM in the test with HLA-A*11:01 (setting [8]); no less than 20 µM in the test with HLA-A*26:01 (setting [8]); 126 nM in the test with HLA-A*69:01 (setting [8]). The Kd in the test with HLA-B*07:02 [3] (setting [8]), with HLA-B*08:01 (setting [8]), in the test with HLA-B*15:01 [2] (setting [8]), with HLA-B*27:05 (setting [8]), with HLA-B*40:01 and with HLA-B*58:01 (setting [8]) was no less than 20 µM throughout.

For the sequence GPKVKYLYF, the Kd with HLA-B*07:02 [1] (setting [7]) is 15.8 µM; in the test with HLA-B*35:01 (setting [7]), no less than 52000 nM; with HLA-B*51:01 (setting [7]) it was 13.6 µM; with HLA-B*53:01 (setting [7]), no less than 41000 nM; in the test with HLA-B*54:01 (setting [7]), 10.4 µM.

LPNDRVLDI: the Kd with HLA-B*07:02 [1] (setting [9]) came out at 7.27 µM; with HLA-B*35:01 (setting [9]), 2690 nM; with HLA-B*51:01 (setting [9]) it was 0.539 µM; with HLA-B*53:01 (setting [9]), 258 nM; with HLA-B*54:01 (setting [9]), 13.1 µM.

With LISIRILYY, the Kd in the test with HLA-B*15:01 [4] (source organism: Vaccinia virus Copenhagen) was 144 nM.

ISIKVKNHI: in the test with HLA-B*15:01 [4] (setting [5]), the Kd was 5600 nM.

With FPQPQLPY, the Kd with HLA-B*07:02 [1] (setting [10]) is 14.1 µM; with HLA-B*35:01 (setting [10]), 244 nM; with HLA-B*51:01 (setting [10]), 0.0204 µM; with HLA-B*53:01 (setting [10]), 1040 nM; with HLA-B*54:01 (setting [10]), no less than 87.7 µM.

For ANPGRVKDW, the Kd with HLA-A*01:01 (setting [11]) is no less than 20000 nM; with HLA-A*02:01 (setting [11]), no less than 20 µM; in the test with HLA-A*03:01 (setting [11]), no less than 20000 nM; with HLA-A*11:01 (setting [11]) it was no less than 20000 nM; with HLA-A*26:01 (setting [11]), no less than 20 µM; with HLA-A*31:01, no less than 20 µM. Further, the Kd is no less than 20000 nM in the test with HLA-A*69:01 (setting [11]); no less than 20 µM in the test with HLA-B*07:02 [3] (setting [11]); no less than 20 µM with HLA-B*08:01 (setting [11]); no less than 20 µM with HLA-B*15:01 [2] (setting [11]); no less than 20 µM with HLA-B*27:05 (setting [11]); no less than 20 µM in the test with HLA-B*58:01 (setting [11]).

Regarding NIAFLDESF, in the test with HLA-B*15:01 [4] (setting [5]), the dissociation constant Kd was determined as 822 nM.

For LPLTSLVITY, the Kd in the test with HLA-B*07:02 [1] (setting [5]) is 7.29 µM; with HLA-B*35:01 (setting [5]), 8.35 nM; with HLA-B*51:01 (setting [5]), 16.5 µM; in the test with HLA-B*53:01 (setting [5]) it was 12.7 nM; in the test with HLA-B*54:01 (setting [5]), 2.7 µM.

With NPIINTHSF, the Kd with HLA-B*07:02 [1] (setting [5]) was 0.003 µM; with HLA-B*35:01 (setting [5]), 0.188 nM; with HLA-B*51:01 (setting [5]) it was no less than 27.1 µM; with HLA-B*53:01 (setting [5]), 0.178 nM; with HLA-B*54:01 (setting [5]), 9.62 µM.

In the case of LIIYYQLAG, in the test with HLA-B*15:01 [4] (setting [5]), the Kd amounted to 1290 nM.
